Laboratory results from publication PMC4161475, “EhCoactosin Stabilizes Actin Filaments in the Protist Parasite Entamoeba histolytica” (PLoS Pathogens, 2014).

B1: EhCoactosin, full-length wild type (natural protein)
chain: MSGFDLSEVAGPVAEVIDDKNEEVEFVVFGVQTQPNKLVVDAKGKGGLEEVKAALKEDALQFAYYRTISGDEESKRVKFVFISWAGEGIKKPKLRAVMSILKGDVKNVINNFHIELHATSLDDLVEDEIAAKIKKAGGADYSFNTTSN
notes: Cloned in pET28b between NcoI and XhoI; also called EhCoWT; WT EhCoactosin; source: E. coli BL21 (DE3), purified (Nickel-NTA, Superdex 75 gel filtration)
B2: EhCoactosin with the N-terminal seven amino acid residues deleted (domain or fragment)
chain: EVAGPVAEVIDDKNEEVEFVVFGVQTQPNKLVVDAKGKGGLEEVKAALKEDALQFAYYRTISGDEESKRVKFVFISWAGEGIKKPKLRAVMSILKGDVKNVINNFHIELHATSLDDLVEDEIAAKIKKAGGADYSFNTTSN
notes: Coactosin of Entamoeba histolytica, NCBI XP_650926.1, 7 residues deleted from the N terminus; The tag is told for the EhCoactosin gene in pET28b; also called EhCoΔN; N-terminal truncation mutant; source: E. coli BL21 (DE3), purified (Nickel-NTA, Superdex 75 gel filtration)

Target: G-actin (rabbit skeletal muscle actin, monomeric) (rabbit, UniProt P68135 1-377)
Assay: ELISA; solid-phase assay: wells coated with 5 µM G-actin in PBS, 5 µM protein added, detected with anti-EhCoactosin antibody; in the presence of Ca2+ (2 mM) or EGTA (5 mM)
Conditions: both partners purified

| Binder | fold of the level of binding of EhCaBP1 | fold increase in binding against WT |
| --- | --- | --- |
| B1 | 2 fold |  |
| B2 |  | 2 fold |
